Reference: paper PMC5299624 (The Journal of General Physiology, 2017)

B1: human NaV1.2 CTD (1777-1937) H1853R (domain or fragment)
chain: ENFSVATEESAEPLSEDDFEMFYEVWEKFDPDATQFIEFAKLSDFADALDPPLLIAKPNKVQLIAMDLPMVSGDRIRCLDILFAFTKRVLGESGEMDALRIQMEERFMASNPSKVSYEPITTTLKRKQEEVSAIIIQRAYRRYLLKQKVKKVSSIYKKDKG
B2: human NaV1.2 CTD (1777-1937) R1918H (domain or fragment)
chain: ENFSVATEESAEPLSEDDFEMFYEVWEKFDPDATQFIEFAKLSDFADALDPPLLIAKPNKVQLIAMDLPMVSGDRIHCLDILFAFTKRVLGESGEMDALRIQMEERFMASNPSKVSYEPITTTLKRKQEEVSAIIIQRAYRHYLLKQKVKKVSSIYKKDKG
B3: human NaV1.6 C-terminal domain (CTD), amino acids 1769-1926, wild type (domain or fragment)
chain: FSVATEESADPLSEDDFETFYEIWEKFDPDATQFIEYCKLADFADALEHPLRVPKPNTIELIAMDLPMVSGDRIHCLDILFAFTKRVLGDSGELDILRQQMEERFVASNPSKVSYEPITTTLRRKQEEVSAVVLQRAYRGHLARRGFICKKTTSNKLE

What follows are binders tested against calmodulin (CaM) (UniProt P0DP23 1-149) (assay: ITC).
For B1, the Kd was 172 nM.
For B2, the Kd was 112 nM.
B3 was tested, and the Kd was 276 nM.
